Where two headings read alike, the source gives them in different places.
B1: A6 scFv (scFv)
scFv: VQLLESGGGLVQPGGSPRLSCAASGFTFSGYWMHWVRQAPGKGLEWVSEISGSGDSTHYGDSVKGRFTISRDNSKNTLYLQMNSLRAEDTAVYYCARGRNGSLDYWGQGTLVTVSSGSAGGGGSGGGGSGGGGSDIVLTQPPSASGTPGQRVTISCTGGRFNIGDYAVNWYQQLPGKAPKLLIYDNDRRPSGVSDRFSGSKSGTSASLAISGLRSEDEADYYCAAWDDSLDGLVFGGGTQLTV
B2: E6 scFv (scFv)
scFv: VQLLESGGGLVQPGGSLRLSCAASGFTFSGYWMHWVRQAPGKGLEWVSEISGSGDSTHYGDSVKGRFTISRDNSKNTLYLQMNSLRAEDTAVYYCARGRNGSLDYWGQGTLVTVSSGSAGGGGSGGGGSGGGGSDIVLTQPPSASGTPGQRVTISCSGSSSNIGAGYDVHWYQQLPGTAPKLLIYGNTNRPSGVSDRFSGSKSGTSASLAISGLRSEDEADYYCQSFDSTLSGPVFGGGTKVTV
B3: F2 scFv (scFv)
scFv: VQLLESGGGLVQPGGSLRLSCAASGFTFSGYWMHWVRQAPGKGLEWVSEISGSGDSTHYGDSVKGRFTISRDNSKNTLYLQMNSLRAEDTAVYYCARGRNGSLDYWGQGTLVTVSSGSAGGGGSGGGGSGGGGSDIVLTQPPSASGTPGQRVTISCSGTSSNIGADYDVHWYQQLPGKAPKLLIYDNNKRPSGVSDRFSGSKSGTSASLAISGLRSEDEADYYCAAWDSSLSSVVFGGGTQLTV

Key:
[1] = molecular target: T1, FRHSVV peptide, the common epitope of mutant p53 (biotin conjugate) (human); test: BIAcore SPR
[2] = molecular target: T1, FRHSVV peptide, the common epitope of …

| Binder | Kd [1] [nM] | Kd [2] [nM] |
| --- | --- | --- |
| B1 | 23 |  |
| B2 |  | 4.6e-05 |
| B3 |  | 11 |
